Drawing on PMC2676315, this text covers Kd for two substances.

Common to all, as to experiment: other fluorescence titration; quenching of the tryptophan fluorescence of SET/TAF-Iβ polypeptides (0.2 to 4 μM; excitation 295 nm, emission 345 nm) on addition of histone; PBS, 25°C; non-linear regression; three repeats
Test [1] deals with SET/TAF-Iβ (76–210), GST removed (human) (UniProt Q01105).
The target of test [2] is SET/TAF-Iβ (76–185), GST removed (human) (UniProt Q01105).
The target in test [3] is SET/TAF-Iβ (110–277), GST removed (human) (UniProt Q01105).
In test [4] the target is SET/TAF-Iβ (1–210), GST removed (human) (UniProt Q01105).
Test [5] addresses SET/TAF-Iβ (1–277), GST removed (human) (UniProt Q01105).

Regarding “calf thymus histone H3 (from UniProt P68432 1-136) (natural protein)”, the Kd (as a rule, the concentration at which binding is half-saturated) was found to be 140 nM in test [1]; 100 nM in test [2]; 160 nM in test [3]; 130 nM in test [4]; 150 nM in test [5].
In test [5], “histone H2B (from UniProt P62808 1-126) (natural protein)” came in with a Kd of 2870 nM.
